These results are taken from publication PMC2745277.

In the data set the target is T1, SurR (Pyrococcus furiosus, UniProt Q8U4J2 1-232).
T1 sequence: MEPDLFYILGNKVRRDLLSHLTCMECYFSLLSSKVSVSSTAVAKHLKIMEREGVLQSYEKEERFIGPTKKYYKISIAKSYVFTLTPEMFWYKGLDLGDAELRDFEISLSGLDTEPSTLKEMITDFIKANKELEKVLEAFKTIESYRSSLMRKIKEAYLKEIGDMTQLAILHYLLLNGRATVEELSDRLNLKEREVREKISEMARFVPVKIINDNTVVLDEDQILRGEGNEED
Put plainly: EMSA.

B1: SELEX-derived 40-bp probe GTTcacAAC (dsDNA)
DNA 1: GCTTCATCCGTGACGTTCACAACCAAATAGATTGAGGATC
DNA 2: GATCCTCAATCTATTTGGTTGTGAACGTCACGGATGAAGC
Take B1: the binding result is “binds”.
